Assay results taken from IntAct's records for PubMed 11265755.

Biological target: esr1_human ESR1 (UniProt P03372)
Sequence (P03372 whole entry): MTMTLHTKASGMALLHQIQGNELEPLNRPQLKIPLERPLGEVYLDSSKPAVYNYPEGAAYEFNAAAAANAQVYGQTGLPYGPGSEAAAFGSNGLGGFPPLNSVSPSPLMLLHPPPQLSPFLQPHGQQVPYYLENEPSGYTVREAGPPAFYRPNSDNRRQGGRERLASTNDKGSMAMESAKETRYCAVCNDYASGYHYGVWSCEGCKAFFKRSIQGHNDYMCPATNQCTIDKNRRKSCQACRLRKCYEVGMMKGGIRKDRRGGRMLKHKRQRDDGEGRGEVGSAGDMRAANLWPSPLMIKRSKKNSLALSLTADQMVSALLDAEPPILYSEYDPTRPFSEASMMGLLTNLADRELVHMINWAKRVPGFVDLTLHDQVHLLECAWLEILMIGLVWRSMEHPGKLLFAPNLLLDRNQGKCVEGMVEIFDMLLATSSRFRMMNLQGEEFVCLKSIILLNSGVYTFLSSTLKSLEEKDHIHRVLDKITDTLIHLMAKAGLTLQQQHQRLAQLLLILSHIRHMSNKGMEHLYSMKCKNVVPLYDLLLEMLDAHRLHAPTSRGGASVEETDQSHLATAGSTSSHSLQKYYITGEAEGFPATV

- effect of a mutation on the interaction: disrupting interaction
Substance: Nuclear receptor coactivator 2 (Homo sapiens), Q15596 L644A;L645A;L693A;L694A;L748A;L749A
